Measurements: patent US10562947B2, “Compositions and methods for preventing or treating diseases, conditions or processes characterized by aberrant fibroblast proliferation and extracellular matrix deposition” (MOERAE MATRIX, INC., priority 2011, dated 2020)
Where a SMILES comes first, the peptide text is derived from it.

Assays:
Tie2(h) = Tie2(h) (Homo sapiens, UniProt Q02763); assay: Kinase Profiling Assay; format: biochemical; conditions: 100 μM peptide
Summary of the method: (§1)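 Each kinase in a 266-member human panel is assayed, in duplicate, for activity in the presence of MK2 inhibitory peptides to gauge specificity.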

PDGFRβ(h) = PDGFRβ(h) (Homo sapiens, UniProt P09619); assay: Kinase Profiling Assay; format: biochemical; conditions: 100 μM peptide
Summary of the method: as §1

BrSK2(h) = biological target: T1, BrSK2(h) (Homo sapiens, UniProt Q8IWQ3); assay: Kinase Profiling Assay; format: biochemical; conditions: 100 μM peptide
T1 sequence (Q8IWQ3 1-736): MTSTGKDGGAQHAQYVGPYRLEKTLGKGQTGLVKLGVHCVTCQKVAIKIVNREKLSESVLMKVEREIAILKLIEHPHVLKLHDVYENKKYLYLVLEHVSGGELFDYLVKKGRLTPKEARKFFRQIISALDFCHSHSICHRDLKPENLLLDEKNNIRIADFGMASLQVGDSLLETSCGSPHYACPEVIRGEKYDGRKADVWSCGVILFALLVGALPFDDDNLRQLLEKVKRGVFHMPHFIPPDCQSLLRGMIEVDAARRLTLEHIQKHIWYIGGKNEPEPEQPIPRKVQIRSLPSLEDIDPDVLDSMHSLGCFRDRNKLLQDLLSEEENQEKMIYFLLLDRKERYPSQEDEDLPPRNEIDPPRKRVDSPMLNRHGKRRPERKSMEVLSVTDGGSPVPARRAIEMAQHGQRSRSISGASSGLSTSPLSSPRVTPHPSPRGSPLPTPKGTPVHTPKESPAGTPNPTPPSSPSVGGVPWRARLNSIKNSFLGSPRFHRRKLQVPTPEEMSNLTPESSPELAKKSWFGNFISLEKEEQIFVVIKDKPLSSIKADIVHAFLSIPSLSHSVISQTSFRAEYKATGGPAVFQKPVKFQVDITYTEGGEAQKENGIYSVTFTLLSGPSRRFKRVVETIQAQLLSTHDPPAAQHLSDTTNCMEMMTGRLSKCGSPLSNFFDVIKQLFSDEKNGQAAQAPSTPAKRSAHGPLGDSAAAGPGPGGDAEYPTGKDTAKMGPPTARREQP
Summary of the method: as §1

Yes(h) = Yes(h) (Homo sapiens, UniProt P07947); assay: Kinase Profiling Assay; format: biochemical; conditions: 100 μM peptide
Summary of the method: as §1

SAPK2a(T106M)(h) = SAPK2a(T106M)(h) (Homo sapiens, UniProt Q16539, T106M); assay: Kinase Profiling Assay; format: biochemical; conditions: 100 μM peptide
Summary of the method: as §1

EphA1(h) = biological target: T2, EphA1(h) (Homo sapiens, UniProt P21709); assay: Kinase Profiling Assay; format: biochemical; conditions: 100 μM peptide
T2 sequence (P21709 26-976): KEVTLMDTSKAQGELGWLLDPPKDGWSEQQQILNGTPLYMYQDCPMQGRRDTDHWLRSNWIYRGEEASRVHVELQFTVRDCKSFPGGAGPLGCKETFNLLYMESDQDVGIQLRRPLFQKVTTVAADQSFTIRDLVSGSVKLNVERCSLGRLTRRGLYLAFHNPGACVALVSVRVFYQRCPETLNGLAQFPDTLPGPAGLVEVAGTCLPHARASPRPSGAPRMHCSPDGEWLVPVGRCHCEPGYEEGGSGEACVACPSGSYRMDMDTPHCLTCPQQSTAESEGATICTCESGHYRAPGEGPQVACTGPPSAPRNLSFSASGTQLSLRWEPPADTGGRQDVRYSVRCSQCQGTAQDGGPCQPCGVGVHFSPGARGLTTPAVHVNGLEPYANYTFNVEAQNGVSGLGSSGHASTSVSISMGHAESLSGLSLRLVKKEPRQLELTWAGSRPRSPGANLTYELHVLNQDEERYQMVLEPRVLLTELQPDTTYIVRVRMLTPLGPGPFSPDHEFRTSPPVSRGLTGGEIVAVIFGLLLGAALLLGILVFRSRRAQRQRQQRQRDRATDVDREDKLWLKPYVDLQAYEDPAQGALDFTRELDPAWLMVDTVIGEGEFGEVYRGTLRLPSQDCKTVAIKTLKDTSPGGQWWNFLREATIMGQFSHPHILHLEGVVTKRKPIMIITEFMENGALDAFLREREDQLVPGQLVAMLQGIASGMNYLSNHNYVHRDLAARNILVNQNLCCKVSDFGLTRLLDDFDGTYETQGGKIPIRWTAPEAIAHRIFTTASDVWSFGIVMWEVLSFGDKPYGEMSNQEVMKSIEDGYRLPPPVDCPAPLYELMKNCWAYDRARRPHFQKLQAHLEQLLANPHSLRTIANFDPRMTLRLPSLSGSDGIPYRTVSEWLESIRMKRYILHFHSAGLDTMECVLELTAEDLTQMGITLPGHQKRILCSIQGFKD
Summary of the method: as §1

PAK2(h) = PAK2(h) (Homo sapiens, UniProt Q13177); assay: Kinase Profiling Assay; format: biochemical; conditions: 100 μM peptide
Summary of the method: as §1

CHK2(h) = CHK2(h) (Homo sapiens, UniProt O96017); assay: Kinase Profiling Assay; format: biochemical; conditions: 100 μM peptide
Summary of the method: as §1

[1] = system: human fetal lung fibroblasts (IMR-90); assay: TGF-β1-induced myofibroblast activation in IMR-90 cells, α-SMA immunoblot; format: cell-based; conditions: 1 h pre-treatment, TGF-β1 2 ng/ml 48 h
Text: Cell lysates were immunoblotted against antibodies for α-SMA (a marker for myofibroblast activation) and GAPDH (loading control).

[2] = system: human fetal lung fibroblasts (IMR-90); assay: TGF-β-mediated fibronectin expression in IMR-90 cells; format: cell-based; conditions: 1 h pre-treatment, TGF-β1 2 ng/ml 72 h
Description: Fibronection was measured as secreted fragments in the conditioned media. Equal amounts (14 μg) of total proteins from the conditioned media were loaded in each lane.

Chain of Yes(h) (P07947 whole entry): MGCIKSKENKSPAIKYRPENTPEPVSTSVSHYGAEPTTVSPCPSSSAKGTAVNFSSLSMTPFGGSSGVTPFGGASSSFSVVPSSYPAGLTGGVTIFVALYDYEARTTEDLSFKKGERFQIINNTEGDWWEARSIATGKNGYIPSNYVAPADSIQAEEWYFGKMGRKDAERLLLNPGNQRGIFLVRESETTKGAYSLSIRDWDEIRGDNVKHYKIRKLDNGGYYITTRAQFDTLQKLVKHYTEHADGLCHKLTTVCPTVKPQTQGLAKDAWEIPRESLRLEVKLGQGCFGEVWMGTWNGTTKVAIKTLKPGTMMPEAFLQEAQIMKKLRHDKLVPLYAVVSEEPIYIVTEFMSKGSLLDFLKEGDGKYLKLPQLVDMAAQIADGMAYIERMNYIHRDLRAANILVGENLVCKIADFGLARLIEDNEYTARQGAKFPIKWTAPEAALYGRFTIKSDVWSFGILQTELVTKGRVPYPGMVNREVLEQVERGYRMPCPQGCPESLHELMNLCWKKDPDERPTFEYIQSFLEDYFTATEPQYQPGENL
Chain of PAK2(h) (Q13177 whole entry): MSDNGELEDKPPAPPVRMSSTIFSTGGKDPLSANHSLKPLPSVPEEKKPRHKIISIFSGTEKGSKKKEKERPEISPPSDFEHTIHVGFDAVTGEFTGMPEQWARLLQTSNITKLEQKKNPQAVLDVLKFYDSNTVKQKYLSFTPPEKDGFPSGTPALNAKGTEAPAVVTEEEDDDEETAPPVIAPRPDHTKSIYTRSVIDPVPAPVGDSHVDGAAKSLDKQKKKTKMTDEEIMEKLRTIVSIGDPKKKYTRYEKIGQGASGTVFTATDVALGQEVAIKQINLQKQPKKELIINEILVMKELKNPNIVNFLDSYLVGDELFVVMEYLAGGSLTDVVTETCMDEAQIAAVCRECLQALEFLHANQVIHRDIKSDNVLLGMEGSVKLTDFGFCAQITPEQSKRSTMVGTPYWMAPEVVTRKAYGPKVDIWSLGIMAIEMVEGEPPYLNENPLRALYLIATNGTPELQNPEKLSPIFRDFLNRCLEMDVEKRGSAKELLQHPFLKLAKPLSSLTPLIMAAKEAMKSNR
Chain of PDGFRβ(h) (P09619 33-1106): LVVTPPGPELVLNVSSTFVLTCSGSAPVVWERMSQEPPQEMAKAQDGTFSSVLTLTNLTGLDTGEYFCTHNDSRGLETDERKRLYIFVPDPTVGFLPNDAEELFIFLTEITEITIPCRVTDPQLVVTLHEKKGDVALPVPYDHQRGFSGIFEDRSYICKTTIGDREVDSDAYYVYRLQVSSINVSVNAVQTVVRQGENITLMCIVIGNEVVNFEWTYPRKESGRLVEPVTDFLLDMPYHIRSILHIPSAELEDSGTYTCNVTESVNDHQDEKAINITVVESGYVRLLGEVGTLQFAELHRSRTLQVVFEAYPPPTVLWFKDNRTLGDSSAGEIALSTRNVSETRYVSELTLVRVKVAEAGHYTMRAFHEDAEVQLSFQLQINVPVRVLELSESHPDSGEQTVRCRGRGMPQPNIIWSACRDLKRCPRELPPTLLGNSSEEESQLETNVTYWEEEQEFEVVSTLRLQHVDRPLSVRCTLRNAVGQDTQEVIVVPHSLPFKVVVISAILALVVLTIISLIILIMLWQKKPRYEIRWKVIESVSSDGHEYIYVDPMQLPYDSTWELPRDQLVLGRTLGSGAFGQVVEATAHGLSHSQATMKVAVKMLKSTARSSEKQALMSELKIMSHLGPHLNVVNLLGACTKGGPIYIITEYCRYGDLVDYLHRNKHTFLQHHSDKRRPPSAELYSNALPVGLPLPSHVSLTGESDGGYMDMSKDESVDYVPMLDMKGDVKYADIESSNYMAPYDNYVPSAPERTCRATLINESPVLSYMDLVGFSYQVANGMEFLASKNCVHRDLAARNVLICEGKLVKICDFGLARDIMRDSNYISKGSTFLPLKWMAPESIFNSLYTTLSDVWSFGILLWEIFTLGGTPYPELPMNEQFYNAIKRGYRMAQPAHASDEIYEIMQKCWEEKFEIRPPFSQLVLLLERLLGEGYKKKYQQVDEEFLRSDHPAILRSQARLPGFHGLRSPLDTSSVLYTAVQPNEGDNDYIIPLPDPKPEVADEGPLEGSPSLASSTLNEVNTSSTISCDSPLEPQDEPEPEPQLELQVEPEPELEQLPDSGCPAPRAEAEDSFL
Chain of CHK2(h) (O96017 whole entry): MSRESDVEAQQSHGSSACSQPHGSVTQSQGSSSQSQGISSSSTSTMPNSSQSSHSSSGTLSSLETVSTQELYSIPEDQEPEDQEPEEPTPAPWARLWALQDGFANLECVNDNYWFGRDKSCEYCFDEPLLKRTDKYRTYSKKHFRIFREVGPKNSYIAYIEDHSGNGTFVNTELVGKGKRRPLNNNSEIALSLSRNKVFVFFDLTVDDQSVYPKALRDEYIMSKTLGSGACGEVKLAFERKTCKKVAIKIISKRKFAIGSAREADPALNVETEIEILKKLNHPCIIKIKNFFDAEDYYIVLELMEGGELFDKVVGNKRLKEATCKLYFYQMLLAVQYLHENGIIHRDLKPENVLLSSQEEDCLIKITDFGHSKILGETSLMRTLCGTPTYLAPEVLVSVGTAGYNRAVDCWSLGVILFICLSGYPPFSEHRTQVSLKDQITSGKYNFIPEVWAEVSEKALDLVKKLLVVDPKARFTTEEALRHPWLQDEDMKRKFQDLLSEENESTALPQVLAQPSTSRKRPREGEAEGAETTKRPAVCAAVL
Chain of SAPK2a(T106M)(h) (Q16539 whole entry T106M): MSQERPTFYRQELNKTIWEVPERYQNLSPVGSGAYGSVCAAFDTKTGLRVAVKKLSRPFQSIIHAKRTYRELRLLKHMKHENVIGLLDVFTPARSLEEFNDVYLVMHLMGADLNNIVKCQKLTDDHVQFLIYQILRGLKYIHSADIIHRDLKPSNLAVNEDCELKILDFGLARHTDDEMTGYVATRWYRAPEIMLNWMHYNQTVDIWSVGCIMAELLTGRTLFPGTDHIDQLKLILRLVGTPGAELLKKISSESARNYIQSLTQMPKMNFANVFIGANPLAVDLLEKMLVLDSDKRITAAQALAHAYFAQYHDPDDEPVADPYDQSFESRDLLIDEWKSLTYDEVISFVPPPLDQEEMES
Chain of Tie2(h) (Q02763 23-1124): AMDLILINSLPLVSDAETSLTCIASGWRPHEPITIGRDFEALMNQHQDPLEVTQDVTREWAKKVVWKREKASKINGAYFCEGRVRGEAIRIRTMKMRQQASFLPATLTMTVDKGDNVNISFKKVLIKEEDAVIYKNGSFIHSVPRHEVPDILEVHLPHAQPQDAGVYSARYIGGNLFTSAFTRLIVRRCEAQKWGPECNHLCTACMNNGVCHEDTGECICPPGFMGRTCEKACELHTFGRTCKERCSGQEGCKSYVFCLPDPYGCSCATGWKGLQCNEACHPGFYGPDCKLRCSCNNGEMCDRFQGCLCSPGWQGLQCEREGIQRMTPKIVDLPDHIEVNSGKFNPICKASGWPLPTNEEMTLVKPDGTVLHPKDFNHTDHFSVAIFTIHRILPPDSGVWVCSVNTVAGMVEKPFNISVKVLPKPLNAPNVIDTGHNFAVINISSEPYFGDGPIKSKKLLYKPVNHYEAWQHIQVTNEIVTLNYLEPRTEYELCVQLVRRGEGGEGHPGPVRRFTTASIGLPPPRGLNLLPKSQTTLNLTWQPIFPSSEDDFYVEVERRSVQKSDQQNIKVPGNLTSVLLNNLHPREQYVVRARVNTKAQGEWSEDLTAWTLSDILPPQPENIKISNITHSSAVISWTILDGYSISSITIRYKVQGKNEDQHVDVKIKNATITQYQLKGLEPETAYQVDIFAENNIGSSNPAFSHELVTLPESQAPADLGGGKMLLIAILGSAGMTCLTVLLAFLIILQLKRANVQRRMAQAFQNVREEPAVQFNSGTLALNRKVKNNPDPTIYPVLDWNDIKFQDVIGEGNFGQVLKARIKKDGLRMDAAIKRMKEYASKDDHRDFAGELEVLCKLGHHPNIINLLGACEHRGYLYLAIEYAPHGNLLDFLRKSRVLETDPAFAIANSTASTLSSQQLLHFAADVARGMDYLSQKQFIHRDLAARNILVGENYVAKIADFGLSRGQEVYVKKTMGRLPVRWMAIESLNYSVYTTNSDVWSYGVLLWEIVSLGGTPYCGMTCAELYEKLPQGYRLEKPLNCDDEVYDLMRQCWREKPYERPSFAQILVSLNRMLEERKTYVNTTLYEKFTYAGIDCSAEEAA

Row | Molecule | Tie2(h) % activity (Tie2(h)) [%] | PDGFRβ(h) % activity (PDGFRβ(h)) [%] | BrSK2(h) % activity (BrSK2(h)) [%] | Yes(h) % activity (Yes(h)) [%] | SAPK2a(T106M)(h) % activity (SAPK2a(T106M)(h)) [%] | EphA1(h) % activity (EphA1(h)) [%] | PAK2(h) % activity (PAK2(h)) [%] | CHK2(h) % activity (CHK2(h)) [%] | protein level of α-smooth muscle actin (α-SMA) [1] | protein level of fibronectin (conditioned media) [2]
1 | FAKLAARLYRKALARQLGVAA [MMI-0300] | 26 | 81 | 83 | 67 | 97 | 73 | 65 | 66 |  | 
2 | CC(C)C[C@H](NC(=O)[C@H](C)NC(=O)[C@H](CCCCN)NC(=O)[C@H](C)NC(=O)[C@H](CCCNC(=N)N)NC(=O)[C@H](C)NC(=O)[C@H](CCC(N)=O)NC(=O)[C@H](CCCNC(=N)N)NC(=O)[C@H](C)NC(=O)[C@H](C)NC(=O)[C@H](C)NC(=O)[C@H](CCCNC(=N)N)NC(=O)[C@H](C)NC(=O)[C@@H](N)Cc1ccc(O)cc1)C(=O)N[C@@H](C)C(=O)N[C@@H](CCCNC(=N)N)C(=O)N[C@@H](CCC(N)=O)C(=O)N[C@@H](CC(C)C)C(=O)NCC(=O)N[C@H](C(=O)N[C@@H](C)C(=O)N[C@@H](C)C(=O)O)C(C)C [MMI-0100] (H-YARAAARQARAKALARQLGVAA-OH; N-terminus and C-terminus assumed) |  |  |  |  |  |  |  |  | decreases in the levels | decreases in the levels
3 | KAFAKLAARLYRKALARQLGVAA [MMI-0400] | 21 | 53 | 86 | 14 | 99 | 61 | 59 | 54 |  | 
4 | YARAAARQARAKALNRQLGVA (Mammalian) [MMI-0200] | 53 | 137 |  | 93 | 100 |  | 69 |  | no changes in the protein level | no changes in the protein level
5 | HRRIKAWLKKIKALARQLGVAA (Mammalian) [MMI-0500] | 22 | 40 | 84 |  | 32 | 40 | 44 | 13 |  | 
